Test results: the supplement of paper PMC12042874
± gives the uncertainty stated by the source.

Assay: amyloid nucleation score (Sup35N fusion, yeast selection) (log enrichment); library NNK1; higher = more nucleation; inactive = no reads after selection
Outline: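 Sup35N fusions to peptides of 20 random codons were expressed in psi-negative yeast, induced 24 hours with 100 μM copper sulfate, and grown 7 days at 30°C on medium lacking adenine and uracil. Input and output plasmid inserts were sequenced by Illumina. The nucleation score is the DiMSum log enrichment of output over input reads, centred on the mode score of non-aggregating sequences. Sequences with under 100 input reads were excluded.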

| Substance | amyloid nucleation score |
| --- | --- |
| SCMESSVTL | 0.656 ± 0.35 |
| SCMTPMYRCSILLLA | -0.306 ± 0.42 |
| SCRSRTYERCLSLVNMEREG | 3.27 ± 0.13 |
| SCSPPIA | 0.223 ± 0.46 |
| SCTWYKFWRKSIAMILAILS | 0.169 ± 0.9 |
| SCVAVRLLWQDMHPRANEPR | 3.34 ± 0.13 |
| SCVYCMSRSNWILVWMALLQ | 0.614 ± 0.45 |
| SDFVWRCFAMSIRLKRLYRS | -0.68 ± 1.7 |
| SDFYLGSRVTCGLNLSMAMG | 0.686 ± 0.62 |
| SDGCYALIWFGREQ | -1.24 ± 1.1 |
| SDIMDFEY | inactive |
| SDMSPNTGFG | 0.073 ± 0.8 |
| SDNIYVMAWCSCNAARSIVF | 0.616 ± 0.18 |
| SDSEGYLVEGWY | 0.882 ± 0.87 |
| SDSIVNKKIVRWYRVFRIGC | 1.19 ± 0.51 |
| SDVVFYFGDAGFRMLSEDSR | -0.326 ± 0.55 |
| SDYGLGMSDWGDFMDRVGLR | 0.527 ± 1.2 |
| SDYMLNFCYSGLIVRMVFAA | -0.508 ± 0.98 |
| SEGCMSGRLCDRGVASFVWL | 0.7 ± 0.97 |
| SEGSLLYTMWGTLVDWSSCV | -1.08 ± 1.4 |
| SEIYSTWNKV | 0.002 ± 0.48 |
| SELWPRVDYCLATYSINSYA | -0.234 ± 0.3 |
| SEMHHCTRGG | -0.167 ± 0.9 |
| SESTYYDIQLPVHMLVDMSE | 0.257 ± 0.24 |
| SETYTPDRYNVRT | 0.536 ± 1.4 |

| Substance | amyloid nucleation score |
| --- | --- |
| SEWAMRITLATASSQTGGSE | 0.235 ± 0.32 |
| SEWIKLRVRLDLSLVAFKII | 0.686 ± 0.39 |
| SFAFAAAYAGEEENRLLMRL | -0.478 ± 0.34 |
| SFDGDRLNVVMAQWL | -0.357 ± 0.58 |
| SFDLGYPIFCKYTRT | 0.576 ± 0.52 |
| SFEDLEM | 0.457 ± 0.85 |
| SFFRNLLYFMIRCGNGYRET | -0.109 ± 0.93 |
| SFGVTFHWN | 2.36 ± 0.28 |
| SFLLNPTADMNHCFGDVFGG | -1.44 ± 1.4 |
| SFLNMGCRTVYRC | 0.331 ± 0.61 |
| SFLSCRWLVFRLMKLRYICA | 0.444 ± 1.4 |
| SFMAVSKGFMTIISSYYLC | -0.662 ± 0.32 |
| SFNHYMFLYFVISGWSSPQA | 1.1 ± 0.55 |
| SFQFVSSCDIRRFAISRATG | -0.152 ± 0.47 |
| SFRKRQVVLVSANNDSVWKC | -0.097 ± 0.57 |
| SFSIGSFSAPLVAERFCCYT | 0.163 ± 0.48 |
| SFSWLSRMTR | 2 ± 0.1 |
| SFTYLCFKQILKPKCTLLAP | inactive |
| SFVHYFKESLAVSSLIRLSN | -0.333 ± 1.1 |
| SFVSYYLLS | -1.09 ± 1.9 |
| SFVYS | -0.157 ± 0.4 |
| SGAYLNKGFSVLAFYIIIVK | 1.81 ± 0.26 |
| SGCSRRCWLGSRPGSWGACC | 0.698 ± 0.45 |
| SGCVQLM | 1.32 ± 0.74 |
| SGCWT | 0.331 ± 0.8 |

| Substance | amyloid nucleation score |
| --- | --- |
| SGFENRDSIPIAPCIRLLLV | -0.056 ± 0.59 |
| SGFRVKQYMFLCFY | -0.473 ± 0.73 |
| SGGMFQVICLV | 0.263 ± 0.34 |
| SGHACTGR | 0.616 ± 0.4 |
| SGKLCWLCVNCVILGSCKSL | -0.442 ± 0.73 |
| SGKTALNSGSFKFLTSSICG | 0.224 ± 1.4 |
| SGMFYILPTSPGYAHEVPRR | 0.393 ± 0.35 |
| SGNGG | -0.158 ± 0.34 |
| SGNTSPCCVSKFDLPHSTGK | 0.245 ± 0.3 |
| SGRLVSRGTKHNQSSRCE | -0.232 ± 0.9 |
| SGSNEWSRENLIGVFVVPGQ | -0.21 ± 1.1 |
| SGTAKGVLAW | 1.4 ± 0.63 |
| SGTAVSIVAWYTMTQLDHAG | -0.001 ± 0.37 |
| SGVICWYQKLAGINDALRWA | 1.21 ± 0.25 |
| SGWNEFTRGTTRVHWRNQYS | -1.48 ± 2.4 |
| SGWYDP | -0.523 ± 0.7 |
| SHCCLDQLGVSDKAR | 0.142 ± 0.62 |
| SHDSKAAHPWSLRNYVATRR | 0.182 ± 0.42 |
| SHGKVVIFSPSHCAGFFSCS | 7.699 ± 0.061 |
| SHRYFKWLRSIDEEVVESL | 0.677 ± 0.9 |
| SHTAVFSRAAIEMCCRDWRA | 0.537 ± 0.47 |
| SHTCYRIVTAPDTLLVSLGV | 0.438 ± 0.36 |
| SHTHEHKFSSSRCGELNSEK | -0.902 ± 0.38 |
| SIFSSWMSWGLII | 0.194 ± 0.39 |
| SIGVFNCNCHRNYEHRYRYM | 1.22 ± 0.15 |

| Substance | amyloid nucleation score |
| --- | --- |
| SIMGVDRLVVVWYGFDRCGF | 1.31 ± 0.66 |
| SINRRALRLGHHSSGVMAGL | -0.547 ± 1.3 |
| SIPFGIIMETCENLTDFAVY | -0.74 ± 0.85 |
| SISRGWFMWEDNRISRFLLI | 0.266 ± 0.37 |
| SITFRRSYTNM | 0.411 ± 0.67 |
| SITRKRVRRDAGGMVCGLVS | inactive |
| SITSSYKYGKVSWSMSLGVG | -1.07 ± 0.46 |
| SITVPGFVAQISGVPIREYC | 0.348 ± 0.79 |
| SITWNPPVPVRTNVVDRNLG | 0.48 ± 0.52 |
| SIVKRNLNAFAGLSLYMIFG | -0.764 ± 0.54 |
| SIVLTIIKHFDYMFQDRGG | 6.06 ± 0.07 |
| SIVMGSVMTFGFDIFL | 4.47 ± 0.066 |
| SIVVLGASTWR | 0.032 ± 0.61 |
| SIYRSVIIVMDTKVMRDVLF | 4.97 ± 0.067 |
| SKCNFVHSRLGIALQYETRL | 3.56 ± 0.1 |
| SKCRL | 1.92 ± 0.62 |
| SKFVSKNCWTARGAL | -0.166 ± 0.48 |
| SKGPWGLY | -0.517 ± 1.1 |
| SKIGDEM | -1.29 ± 1.2 |
| SKLKAYICLCRMEIVLIPRF | -0.978 ± 1.7 |
| SKNHSFDSYVMTVYFHHCGK | -0.291 ± 0.4 |
| SKRATYFFTASLGTQRCLMK | 1.29 ± 0.9 |
| SKRLACSYSSMFVKCSEYKL | 0.413 ± 0.97 |
| SLCILDEQVDHFVAEGVGID | 0.876 ± 0.42 |
| SLDGNFTKALLLKIR | 1.08 ± 0.35 |

| Substance | amyloid nucleation score |
| --- | --- |
| SLDVILVPMCTFCRGMAYCS | 0.457 ± 1.1 |
| SLFLMIVVYHVHVRALYILV | 0.531 ± 0.93 |
| SLFPVTVRKDCCLT | -0.434 ± 0.39 |
| SLFSWVCRSITGPILRISLR | 0.73 ± 0.24 |
| SLIISKEGRYVFYVCLRGWW | -0.447 ± 0.42 |
| SLIKGSTKLPR | 0.273 ± 0.6 |
| SLISCEWSYTWCGKFVILLV | -0.707 ± 1.1 |
| SLITGIRRSGMAICLDLWAG | -1.21 ± 2.7 |
| SLIYNRIRFLDGF | 0.925 ± 1.1 |
| SLMVSRGDTCG | -0.181 ± 0.35 |
| SLMWLWIFSRAGSLSLLLIA | 0.718 ± 1.2 |
| SLNFT | -0.337 ± 0.31 |
| SLPITLLPKGFATKVFVRVC | -0.127 ± 0.72 |
| SLPLTVVLYCHRYG | 5.05 ± 0.064 |
| SLPNILLSQPMFRRISSMLQ | 1.17 ± 0.62 |
| SLPRSSIRYRFQCVRLESVM | -0.601 ± 0.47 |
| SLQINMTSSICLVST | 3.35 ± 0.07 |
| SLQTTWLKNLGDLSSSREAS | -0.121 ± 0.73 |
| SLRFPKKGYVTRCTAWYLGV | 3.45 ± 0.083 |
| SLRGQAHLQFSLRILSHSS | 1.4 ± 0.24 |
| SLRILRSRS | inactive |
| SLSLDSNEKRKRICFW | 1.36 ± 0.29 |
| SLSLIVVKNGIFLVH | 3.16 ± 0.12 |
| SLTAVISTKVL | -0.663 ± 1.7 |
| SLVFQDRRYLTAFLGFVLWL | -0.476 ± 0.51 |

| Substance | amyloid nucleation score |
| --- | --- |
| SLVYYLGEWV | -0.366 ± 0.34 |
| SLYGYCLYARMCTASSKKLI | 1.09 ± 0.28 |
| SMESLTVEAMNSVEAFPVTY | -1.22 ± 0.73 |
| SMFASL | -0.229 ± 0.43 |
| SMGLHLMQMAAGEHIGRNR | -0.31 ± 0.4 |
| SMRFYYA | 2.97 ± 0.23 |
| SMSAQPFCNHV | -0.926 ± 0.91 |
| SMTKSIGMRSYGMVAHGAGS | 0.722 ± 0.45 |
| SMTRIANSMINVFGENPSNS | -0.267 ± 0.69 |
| SMVVV | inactive |
| SMWTKKLFMFHNGI | 0.201 ± 0.56 |
| SMYKMDMSLSTWCWFAWHDH | -0.37 ± 0.45 |
| SNCGWRIFKEM | -1.35 ± 2.1 |
| SNCRDKRFMY | 0.637 ± 0.79 |
| SNESILFVGSPVTRFIQYVD | inactive |
| SNFCDTCLKLRGNTCMASFT | -0.259 ± 0.42 |
| SNFTEVLLSECFLVWLMFTH | 0.089 ± 0.87 |
| SNGLGMVRDR | -0.172 ± 0.67 |
| SNGMRRLTKVDEHSL | 0.933 ± 0.54 |
| SNHQLEYRL | 1.52 ± 0.55 |
| SNLDLHRSVLSRLGKYLDFP | 5.35 ± 0.081 |
| SNLECV | -0.019 ± 0.51 |
| SNMEYVMNEILVRLALPTSR | -0.671 ± 1.5 |
| SNRFVPSNSSKVGSNVIDAK | 0.386 ± 0.36 |
| SNRLLGVEAGVGCEIVKYNR | -0.301 ± 0.38 |

| Substance | amyloid nucleation score |
| --- | --- |
| SNRNAGRKTMGHLWHQE | 0.2 ± 0.42 |
| SNSLLQGVTIWPNYPLCGNL | 0.464 ± 0.53 |
| SNTKIED | 0.508 ± 0.59 |
| SNVFYVYRVVKSCIIFDSVL | 2.6 ± 0.076 |
| SNWLFWFIKMGQFQDSICYA | -0.616 ± 1.4 |
| SNYSQLLVMEVLHLGYTIRR | -1.19 ± 0.91 |
| SPESRRQWCL | inactive |
| SPGFYLHGYQQNQHP | 0.653 ± 0.68 |
| SPNLI | 0.344 ± 0.9 |
| SPPLSASS | -0.476 ± 1.9 |
| SPSES | -0.31 ± 0.61 |
| SPVRIYTSRSIMRFNVRKPT | -0.306 ± 0.9 |
| SPYGALFLDQLFYYQGADRG | 1.05 ± 0.84 |
| SQCLMKGHCKT | 0.286 ± 0.66 |
| SQIDYNDSCWNLGNP | 0.164 ± 0.39 |
| SQLFYAILSIHYWCVTFFRC | 0.642 ± 0.33 |
| SQPSMPNSVGGDTFG | -0.658 ± 0.49 |
| SQRNLHTTYTYVAYRDYAER | 0.957 ± 0.29 |
| SQWALKITFYKMVAL | -0.171 ± 1.1 |
| SRAINVSVMWVRFS | 2.81 ± 0.13 |
| SRGSVCIAMHLAC | 0.001 ± 0.37 |
| SRGVAALYSSNI | -0.278 ± 0.35 |
| SRIIGMSRCCIGHRYMYMKT | -0.598 ± 1.4 |
| SRLGLSSDY | 0.092 ± 0.33 |
| SRLTFVVVWDSSVVHIRMTG | 3.46 ± 0.12 |
